Numbering of substitutions follows the chain as printed. Where “and” joins values, the source holds several entries; their conditions need not be identical. Equal values may be shown once. Read-outs that look alike come from different tables or passages of the source.
T1: PDGF-BB (human, UniProt P01127)
T1 chain: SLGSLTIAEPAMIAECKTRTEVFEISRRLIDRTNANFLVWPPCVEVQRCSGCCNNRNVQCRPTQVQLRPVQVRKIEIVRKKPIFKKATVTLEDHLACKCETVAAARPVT

T2: VEGF121 (human, UniProt P15692)
T2 chain: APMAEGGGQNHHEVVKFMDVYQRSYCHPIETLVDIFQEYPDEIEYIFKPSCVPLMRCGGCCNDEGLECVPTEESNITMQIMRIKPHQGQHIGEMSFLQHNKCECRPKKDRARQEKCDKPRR

T3: VEGFA-165 (human, UniProt P15692)
T3 chain: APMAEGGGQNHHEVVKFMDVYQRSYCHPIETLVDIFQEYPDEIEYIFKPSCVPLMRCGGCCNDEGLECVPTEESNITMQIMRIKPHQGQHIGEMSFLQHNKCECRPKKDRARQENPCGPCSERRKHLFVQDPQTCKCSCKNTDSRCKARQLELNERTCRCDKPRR

B1: OG1321 (antibody)
chain 1: LVVTPPGPELVLNVSSTFVLTCSGSAPVVWERMSQEPPQEMAKAQDGTFSSVLTLTNLTGLDTGEYFCTHNDSRGLETDERKRLYIFVPDPTVGFLPNDAEELFIFLTEITEITIPCRVTDPQLVVTLHEKKGDVALPVPYDHQRGFSGIFEDRSYICKTTIGDREVDSDAYYVYRLQVSSINVSVNAVQTVVRQGENITLMCIVIGNEVVNFEWTYPRKESGRLVEPVTDFLLDMPYHIRSILHIPSAELEDSGTYTCNVTESVNDHQDEKAINITVVESGGGGGSGGGGSEVQLVESGGGLVQPGGSLRLSCAASGYDFTHYGMNWVRQAPGKGLEWVGWINTYTGEPTYAADFKRRFTFSLDTSKSTAYLQMNSLRAEDTAVYYCAKYPYYYGTSHWYFDVWGQGTLVTVSSASTKGPSVFPLAPSSKSTSGGTAALGCLVKDYFPEPVTVSWNSGALTSGVHTFPAVLQSSGLYSLSSVVTVPSSSLGTQTYICNVNHKPSNTKVDKKVEPKSCDKTHTCPPCPAPEAAGAPSVFLFPPKPKDTLMISRTPEVTCVVVDVSHEDPEVKFNWYVDGVEVHNAKTKPREEQYNSTYRVVSVLTVLHQDWLNGKEYKCKVSNKALPAPIEKTISKAKGQPREPQVYTLPPSREEMTKNQVSLTCLVKGFYPSDIAVEWESNGQPENNYKTTPPVLDSDGSFFLYSKLTVDKSRWQQGNVFSCSVMHEALHNHYTQKSLSCSPGK
chain 2: not shown
modifications: TAF443 protein, unconjugated
B2: TAF443 (antibody)
chain 1: B1 chain 1
chain 2: not shown
B3: OG1448 (antibody)
chain 1: B1 chain 1
chain 2: not shown
B4: TAF347 (antibody)
chain 1: B1 chain 1 with Q645C, C741L
chain 2: not shown
B5: OG1321 (antibody)
chain 1: B1 chain 1
chain 2: not shown

Tests used:
PDGF-BB = target: T1, PDGF-BB; experiment: SPR, 25C
VEGF121 [1] = target: T2, VEGF121; experiment: SPR
VEGF121 [2] = target: T2, VEGF121; experiment: SPR
VEGFA-165 [3] = target: T3, VEGFA-165; experiment: competition
VEGFA-165 [4] = target: T3, VEGFA-165; experiment: competition
VEGFA-165 [5] = target: T3, VEGFA-165; experiment: SPR

Binder | Kd (VEGF121 [1]) [nM] | Kd (VEGF121 [2]) | IC50 (VEGFA-165 [4]) [nM] | Kd (VEGFA-165 [5]) [nM] | other results
B1 |  |  |  |  | Kd (PDGF-BB): 0.014 nM
B2 | 0.225 | 0.23 nM and 0.219 nM |  |  | 
B3 |  |  | 8.5 | 0.0051 | IC50 (VEGFA-165 [3]): 10.1 nM
B4 | 0.231 | 0.28 nM and 0.182 nM |  |  | 
B5 |  |  | 12.5 | 0.0098 | 
